Experimental findings from PMC3168509, “Insights into the Role of Yeast eIF2A in IRES-Mediated Translation” (PLoS ONE, 2011) are described below.

In this assay the target is T1, GST-eEF1A (full-length eEF1A/Tef1p fused to GST) (S. cerevisiae, UniProt P02994 1-458).
T1 construct: yeast eEF1A, TEF1 amplified by PCR from genomic DNA; also called GST-TEF1; full-length eEF1A fusion protein; not shown: GST, N-terminal, kept
T1 sequence (looked up): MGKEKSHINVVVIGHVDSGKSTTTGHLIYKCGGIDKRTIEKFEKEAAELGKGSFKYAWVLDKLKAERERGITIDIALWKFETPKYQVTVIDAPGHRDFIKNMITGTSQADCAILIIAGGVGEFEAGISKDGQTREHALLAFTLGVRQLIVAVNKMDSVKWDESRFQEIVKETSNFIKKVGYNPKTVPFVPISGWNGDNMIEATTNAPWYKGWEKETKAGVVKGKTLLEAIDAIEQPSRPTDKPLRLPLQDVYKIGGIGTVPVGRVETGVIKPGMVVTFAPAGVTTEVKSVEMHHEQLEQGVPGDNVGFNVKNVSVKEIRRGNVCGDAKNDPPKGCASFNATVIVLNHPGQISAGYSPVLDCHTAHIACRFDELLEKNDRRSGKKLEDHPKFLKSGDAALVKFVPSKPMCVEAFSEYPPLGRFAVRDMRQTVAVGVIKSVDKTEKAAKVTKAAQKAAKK
Put plainly: pull-down; full-length GST-eEF1A on glutathione-Sepharose with lysates of ΔeIF2A yeast carrying YCplac111-YP, grown 1 h without or with 6% ethanol; Western blot for HA, bands quantified with Image J against 8% input. To be noted: one partner purified. In general terms: In western blotting, separated proteins are transferred to a membrane and probed.

B1: HA-eIF2A (N-terminally HA-tagged eukaryotic initiation factor 2A expressed from YCplac111-YP) (natural protein, S. cerevisiae, UniProt P53235 1-642, looked up)
chain: MSSQFFLKTSQDIELFQSYPTFEQSNTNSKDFPVISSVLSPCGRFLALSTKENVKVFTGPCLDNVLLTMKLSDVYDLHFSPAGNYLSTWERASIQDPNHKNVKVWYLNKPFKKDCVSEDIVPAYEYQAKSQSGWFLQFSKLDNYGLRLFKHDLKIVKLSSANADNFDFQSPFAVLSDDETSQHFTTYLISPAEHPTICTFTPEKGGKPAQLIIWALSEGKITKKIASKTFFKADSCQLKWNPLGNAILCLAITDFDSSNKSYYGENTLYLLSFQGVNGTLGGNSVRVSLTTGPVHDFTWSPTSRQFGVIAGYMPATISFFDLRGNVVHSLPQQAKNTMLFSPSGHYILIAGFGNLQGSVEILDRLDKFKCVSKFDATNTSVCKWSPGGEFIMTATTSPRLRVDNGVKIWHVSGSLVFVKEFKELLKVDWRSPCNYKTLENKDEAFFENHIINNWEPLPDSTTSSLDPKISNKSELQIHSSVQEYISQHPSREASSNGNGSKAKAGGAYKPPHARRTGGGRIVPGVPPGAAKKTIPGLVPGMSANKDANTKNRRRRANKKSSETSPDSTPAPSAPASTNAPTNNKETSPEEKKIRSLLKKLRAIETLKERQAVGDKLEDTQVLKIQTEEKVLKDLEKLGWKDE
notes: yeast eukaryotic initiation factor 2A, encoded by YGR054w; the HA-tagged eIF2A coding region behind its natural promoter; the kind of modification is not known; also called HA-tagged eIF2A; YGR054w; source: BY4684 ΔeIF2A yeast transformed with YCplac111-YP (native promoter), in lysate; not shown: HA, N-terminal, kept
With B1, the “fold increase in interaction (6% ethanol against untreated cells)” value was determined as 2 fold.
